Key:
[1] = biological target: M15 (influenza A virus); assay: ELISA on peptide, Ab 10 µg/ml
[2] = biological target: M16 (influenza A virus); assay: ELISA on peptide, Ab 10 µg/ml
[3] = biological target: M2 peptide (influenza A virus, A/Hong Kong/1/68 (H3N2)); assay: ELISA on peptide, Ab 10 µg/ml
[4] = biological target: NM15 (influenza A virus); assay: ELISA on peptide, Ab 10 µg/ml
[5] = biological target: NM16 (influenza A virus); assay: ELISA on peptide, Ab 10 µg/ml
[6] = biological target: NM17 (influenza A virus); assay: ELISA on peptide, Ab 10 µg/ml
[7] = biological target: M2-BSA conjugate (influenza A virus, A/Hong Kong/1/68 (H3N2)); assay: peptide-BSA ELISA (++ EC50<10^-9M; + 10^-9M<EC50<10^-8M)
[8] = biological target: M2FG peptide conjugated with BSA (influenza A virus, A/X-31 (H3N2)); assay: as above; conditions: remark: other sources report otherwise
[9] = biological target: M2G peptide conjugated with BSA (influenza A virus, A/Puerto Rico/8/34 (H1N1)); assay: as above

B1: C40G1 (antibody, V domains shown)
VH: QLQLQESGPGLVKPSETLSLTCTVSGGSISSSFYYCGWIRQPPGKGLEWIGSIYYRGSTYYNPSLKSRVTISVDTSKNQFSLKLSSVTAADTAVYYCARRVTMVRGVKGDYFDYWGQGTLVTVSS
VL: DIQMTQSPSSLSASVGDRVTITCRASQGISSWLAWYQQKPEKVPKSLIYAASSLQSGVPSRFSGSGSGTDFTLTISSLQPEDFATYYCQQYNYYPLTFGGGTKVEIKR
B1 showed an ELISA(OD450) [1] of 2.73 OD450, an ELISA(OD450) [2] of 2.64 OD450 and an ELISA(OD450) [3] of 2.56 OD450. It also gave an ELISA(OD450) [4] of 2.51 OD450, an ELISA(OD450) [5] of 2.37 OD450 and an ELISA(OD450) [6] of 2.41 OD450. The EC50 [7] was < 1 nM, the EC50 [8] was < 1 nM and the EC50 [9] was < 1 nM.
